The target of data set [1] is T1, hPot1p (Homo sapiens, UniProt Q9NUX5 SEQ:1-634).
T1 chain: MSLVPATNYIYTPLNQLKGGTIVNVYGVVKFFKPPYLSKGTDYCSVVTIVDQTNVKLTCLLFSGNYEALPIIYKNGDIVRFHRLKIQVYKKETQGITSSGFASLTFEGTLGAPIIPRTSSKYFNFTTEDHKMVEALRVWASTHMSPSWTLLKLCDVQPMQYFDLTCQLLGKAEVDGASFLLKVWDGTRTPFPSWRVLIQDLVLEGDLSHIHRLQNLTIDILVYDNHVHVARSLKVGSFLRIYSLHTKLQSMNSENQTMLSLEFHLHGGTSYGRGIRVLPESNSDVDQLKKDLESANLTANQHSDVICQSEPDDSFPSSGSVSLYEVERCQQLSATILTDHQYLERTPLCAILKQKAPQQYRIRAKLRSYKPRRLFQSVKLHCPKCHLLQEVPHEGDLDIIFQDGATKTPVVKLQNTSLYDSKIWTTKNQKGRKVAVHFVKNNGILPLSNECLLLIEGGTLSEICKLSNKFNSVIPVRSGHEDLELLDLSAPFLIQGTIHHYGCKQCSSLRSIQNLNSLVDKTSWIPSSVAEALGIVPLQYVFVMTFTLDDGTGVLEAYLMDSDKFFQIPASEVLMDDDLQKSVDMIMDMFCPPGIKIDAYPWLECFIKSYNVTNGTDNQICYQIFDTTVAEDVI
Nature of the data set: listed as hPot1p-binding. The settings on record: tags: N-terminal His6 (pQE30), E. coli.

Data set [2] concerns the target T1, hPot1p. Nature of the data set: EMSA; conditions as for SpPot1p. Particulars: tags: N-terminal His6 (pQE30), E. coli.

As for TTAGGGTTAGGGTTAGGGTT (ssDNA) [PBoli177], the binding result in data set [1] was “binds”.

In the case of GGTTAGGGTTAGGGTTAGGG (ssDNA) [PBoli178], the binding result in data set [1] is reported as “binds”.

Take TTAGGGTTAGGGTTAGGGTTAGGGTTAGGG (ssDNA) [human G-strand (TTAGGG)5 (PBoli179)]: the binding result in data set [2] is reported as “binds”.

Values taken from US20040191820, “Protection-of telomere-1 (POT-1) protein and encoding polynucleotides” (The Regents of the University of Colorado, published 2004).
